# In PMC10454365:
# Molecular target: Recombinant human LY6K protein (LY6K-Wt) (human) (UniProt Q17RY6)
# Assay: SPR; LY6K immobilised on a CM5 chip by amine coupling (~6200–7000 RU); TbR1 injected at various concentrations, 50 μL/min; Biacore T200, 25 °C; running buffer PBS-P + 5% DMSO; 1:1 kinetics binding model
binder,measurement,value
Recombinant human TbR1 protein (receptor) LQCFCHLCTKDNFTCVTDGLCFVSVTETTDKVIHNSMCIAEIDLIPRDRPFVCAPSSKTGSVTTTYCCNQDHCNKIELPTTVKSSPGLGPVEL,Kd,9.2 nM
same,koff,0.000468 s⁻¹
same,kon,51000 M⁻¹ s⁻¹
